Test [1] concerns the target T1, collagen.
T1 construct: also called collagen-treated well; collagen surface
The test is described as follows: fluorescence plate binding assay, dansyl peptide on collagen-coated wells, curve fitted to the data of FIG. 3. The method, then:
(§1) Binding assays were done in a 96-well high-binding plate, black with a clear bottom (Costar). Collagen was compared to untreated wells and BSA coated wells. Collagen and BSA were immobilized at 37° C. for 1 hr by incubating 90 μL/well at concentrations of 2 mg/mL in 10 mM HCl and 1× PBS, respectively. Each well was washed 3× with 1× PBS after incubating. Z-SILY was dissolved in 1× PBS at concentrations from 100 μM to 10 nM in 10-fold dilutions. Wells were incubated for 30 min at 37° C. and rinsed 3× with PBS and then filled with 90 μL of 1× PBS. Fluorescence readings were taken on an M5 Spectramax Spectrophotometer (Molecular Devices) at excitation/emission wavelengths of 335 nm/490 nm respectively.

Test [2] addresses T1, collagen. The test is described as follows: fluorescence plate binding assay, dansyl peptide on collagen-coated 96-well plate, equilibrium. The procedure:
as §1

Results on 1 molecule are retold here after patent US20150038427A1 (SYMIC BIOMEDICAL, published 2015).

Ends that are not written are not given here. * marks the point of attachment. Dansyl = CN(C)c1cccc2c(S(=O)(=O)*)cccc12

B1: Dansyl-GRRANAALKAGELYKSILYGC (peptide)
peptide: Dansyl-GRRANAALKAGELYKSILYGC
notes: Fluorescently labelled version of SILY, tested as free peptide; also called ZSILY; Z-SILY
One may read the EC50 (read off the curve) as the concentration at which the effect is half-maximal. A low value points to higher potency in that assay. A word on the Kd: it is the free concentration of one partner at which half of the binding sites on the other are occupied at equilibrium, for simple one-to-one binding. Read a low Kd as tighter binding. Regarding B1, the “EC50 (read off the curve)” value with collagen [1] was about 900 nM. Also, the affinity in the test with collagen [2], expressed as Kd, was 860 nM.
